Molecular target: sarbecoviruses tested (pseudovirus spikes)
Test: cell-based or functional assay

Binder	pseudovirus neutralization IC50
HSW-2 (antibody, V domains shown) VH: QVQLQQSGPELVKPGASVKISCKASGYVFSTSWMSWVKQRPGEGPEWIGRIYPRDGHSSSTGKFKDKATLTADKSSNTAYIHLSSLTSEDSAVYFCARDYGYYYFDYWGQGTTLTVSS VL: DIQMTQSPASLSASVGEAVTITCRLSENVYSFLAWYQQKQGKSPQLLVYRAKTLAEGVPSRFSGSGSGTQFSLKINSLQPEDFGTYYCQHHYGTPPTFGGGTKLEIK	> 10 µg/mL
HSW-1 (antibody, V domains shown) VH: QVQLQQPGAELVKPGTSMKLSCKASGYTFTSYWMHWVKQRPGQGLEWIGMIHPNSGSTKYNENFKSKATLTVDKSSSTAYMQFSSLTSEDSAVYYCVRSGSYYGTTYDYFDYWGQGTTLTVSS VL: DIVLTQSPASLAVSLGQRATISCRASESVNIYGNSFMHWYQQKPGQPPKLLIFRASNLESGIPVRFSGSGSRTDFTLTINPVEADDVATYYCHQSNEDPFTFGSGTKLEIK	> 10 µg/mL
